The source of these data is patent US20210040228.

For the series, the system named is D11-CD8stk-IL2Rg_A5-Hinge-IL2Rb.
Sequence of D11-CD8stk-IL2Rg_A5-Hinge-IL2Rb (chain, as listed by the source, chain 1 of 2): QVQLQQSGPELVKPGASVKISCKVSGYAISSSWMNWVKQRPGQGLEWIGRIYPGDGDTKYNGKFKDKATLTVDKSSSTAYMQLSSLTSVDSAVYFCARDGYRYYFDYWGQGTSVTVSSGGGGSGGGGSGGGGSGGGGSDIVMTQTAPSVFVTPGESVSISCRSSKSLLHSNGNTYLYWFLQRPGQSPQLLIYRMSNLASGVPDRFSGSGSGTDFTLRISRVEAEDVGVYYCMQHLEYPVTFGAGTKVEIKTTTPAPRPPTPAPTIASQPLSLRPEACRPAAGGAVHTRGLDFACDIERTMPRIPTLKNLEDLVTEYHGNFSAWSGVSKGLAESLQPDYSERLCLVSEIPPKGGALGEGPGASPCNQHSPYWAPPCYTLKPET
Sequence of D11-CD8stk-IL2Rg_A5-Hinge-IL2Rb (chain, as listed by the source, chain 2 of 2): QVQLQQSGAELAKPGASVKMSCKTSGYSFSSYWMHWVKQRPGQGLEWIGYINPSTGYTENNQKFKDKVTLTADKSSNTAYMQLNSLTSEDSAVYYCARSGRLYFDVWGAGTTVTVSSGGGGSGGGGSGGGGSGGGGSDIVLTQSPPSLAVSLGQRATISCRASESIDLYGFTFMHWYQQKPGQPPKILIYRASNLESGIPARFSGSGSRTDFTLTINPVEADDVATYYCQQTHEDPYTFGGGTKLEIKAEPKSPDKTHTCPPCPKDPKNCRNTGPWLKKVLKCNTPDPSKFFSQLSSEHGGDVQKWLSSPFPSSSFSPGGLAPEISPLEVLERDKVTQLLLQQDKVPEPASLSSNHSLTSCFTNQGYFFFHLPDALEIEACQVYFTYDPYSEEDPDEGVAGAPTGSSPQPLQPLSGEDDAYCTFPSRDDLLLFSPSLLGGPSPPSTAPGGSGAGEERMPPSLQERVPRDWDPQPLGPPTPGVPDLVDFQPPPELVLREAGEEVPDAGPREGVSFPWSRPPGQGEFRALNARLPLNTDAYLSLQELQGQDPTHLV

Turning to prostate-specific antigen (PSA), the “phosphorylation of Y694 of STAT5 (phosphoflow), 500 ng/mL PSA for 1 or 4 hours” value is reported as “In the cells expressing the PSA CCR, the presence of PSA lead to increasing STAT5 phosphorylation with time”.
